T1: mouse beta klotho expressed on cells (mouse (Mus musculus), UniProt Q99N32 1-1043)
T1 construct: also called Mouse KLB
T1 sequence: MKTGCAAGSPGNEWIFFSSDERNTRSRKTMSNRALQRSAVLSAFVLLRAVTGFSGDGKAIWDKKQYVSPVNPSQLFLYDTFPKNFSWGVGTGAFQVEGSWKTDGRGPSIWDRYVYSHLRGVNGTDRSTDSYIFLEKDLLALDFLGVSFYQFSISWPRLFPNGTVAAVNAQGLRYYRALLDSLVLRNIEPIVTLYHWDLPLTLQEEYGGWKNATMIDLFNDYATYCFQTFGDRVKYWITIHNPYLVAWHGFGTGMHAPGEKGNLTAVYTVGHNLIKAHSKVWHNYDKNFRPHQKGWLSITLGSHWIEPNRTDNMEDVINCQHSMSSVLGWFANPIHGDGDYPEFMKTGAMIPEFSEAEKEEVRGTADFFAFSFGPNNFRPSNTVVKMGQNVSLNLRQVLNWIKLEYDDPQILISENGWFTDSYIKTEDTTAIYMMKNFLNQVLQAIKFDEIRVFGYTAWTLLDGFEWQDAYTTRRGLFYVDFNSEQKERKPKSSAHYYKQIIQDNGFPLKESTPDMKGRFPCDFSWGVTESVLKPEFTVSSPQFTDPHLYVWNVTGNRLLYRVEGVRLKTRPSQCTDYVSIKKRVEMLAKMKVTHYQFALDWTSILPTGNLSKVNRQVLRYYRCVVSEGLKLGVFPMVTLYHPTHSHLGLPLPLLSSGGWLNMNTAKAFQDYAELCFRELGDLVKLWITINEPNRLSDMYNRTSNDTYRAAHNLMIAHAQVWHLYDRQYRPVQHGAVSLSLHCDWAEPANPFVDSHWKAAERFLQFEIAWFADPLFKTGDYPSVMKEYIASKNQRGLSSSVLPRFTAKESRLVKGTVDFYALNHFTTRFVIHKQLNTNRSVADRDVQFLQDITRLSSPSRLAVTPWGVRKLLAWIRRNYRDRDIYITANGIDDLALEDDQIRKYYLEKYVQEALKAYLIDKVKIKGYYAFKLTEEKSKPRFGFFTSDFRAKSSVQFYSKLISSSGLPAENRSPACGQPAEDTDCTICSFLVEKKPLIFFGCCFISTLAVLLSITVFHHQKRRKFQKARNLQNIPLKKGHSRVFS

B1: humanized 5H23 antibody (VH SEQ ID NO: 271 and VL SEQ ID NO: 276) (antibody, V domains shown)
VH: QVQLQQSGAEVKKPGASVKVSCKASGYTFTSYDINWVRQAPGQGLEWIGWIYPGDGSTKYNEKFKGKATITRDTSASTAYMELSSLRSEDTAVYFCARSDYYGSRSFAYWGQGTLVTVSS
VL: DIVMTQSPDSLAVSLGERATINCRASKSVSTSGYVYMHWYQQKPGQPPKLLIYLASYLESGVPDRFSGSGSGTDFTLTISSVQAEDVAVYYCQHSRDLTFPFGGGTKLEIK
notes: also called h5H23; h5H23 (Prep 1)
B2: negative control antibody, anti-keyhole limpet hemocyanin (KLH) antibody (antibody, human IgG1, kappa, V domains shown)
VH: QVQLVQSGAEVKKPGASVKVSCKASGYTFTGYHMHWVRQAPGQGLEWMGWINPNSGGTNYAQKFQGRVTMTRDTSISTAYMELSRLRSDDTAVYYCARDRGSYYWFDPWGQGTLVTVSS
VL: DIQMTQSPSSLSASVGDRVTITCRASQGIRNDLGWYQQKPGKAPKRLIYAASSLQSGVPSRFSGSGSGTEFTLTISSLQPEDFATYYCLQHNSYPLTFGGGTKVEIKR
notes: also called Neg; Control; anti-KLH antibody

Columns and labels:
[1] = molecular target: T1, mouse beta klotho expressed on cells; assay: FACS on transfected Expi293 cells, antibody 1 µg/ml, labelled anti-human Fc
[2] = molecular target: human beta klotho / human FGFR1c receptor complex on cells (human, UniProt Q86Z14 1-1044; P11362 22-822); assay: cell-based or functional assay
human beta klotho / human FGFR1c receptor complex on cells, sequence (Q86Z14 whole entry, chain 1 of 2): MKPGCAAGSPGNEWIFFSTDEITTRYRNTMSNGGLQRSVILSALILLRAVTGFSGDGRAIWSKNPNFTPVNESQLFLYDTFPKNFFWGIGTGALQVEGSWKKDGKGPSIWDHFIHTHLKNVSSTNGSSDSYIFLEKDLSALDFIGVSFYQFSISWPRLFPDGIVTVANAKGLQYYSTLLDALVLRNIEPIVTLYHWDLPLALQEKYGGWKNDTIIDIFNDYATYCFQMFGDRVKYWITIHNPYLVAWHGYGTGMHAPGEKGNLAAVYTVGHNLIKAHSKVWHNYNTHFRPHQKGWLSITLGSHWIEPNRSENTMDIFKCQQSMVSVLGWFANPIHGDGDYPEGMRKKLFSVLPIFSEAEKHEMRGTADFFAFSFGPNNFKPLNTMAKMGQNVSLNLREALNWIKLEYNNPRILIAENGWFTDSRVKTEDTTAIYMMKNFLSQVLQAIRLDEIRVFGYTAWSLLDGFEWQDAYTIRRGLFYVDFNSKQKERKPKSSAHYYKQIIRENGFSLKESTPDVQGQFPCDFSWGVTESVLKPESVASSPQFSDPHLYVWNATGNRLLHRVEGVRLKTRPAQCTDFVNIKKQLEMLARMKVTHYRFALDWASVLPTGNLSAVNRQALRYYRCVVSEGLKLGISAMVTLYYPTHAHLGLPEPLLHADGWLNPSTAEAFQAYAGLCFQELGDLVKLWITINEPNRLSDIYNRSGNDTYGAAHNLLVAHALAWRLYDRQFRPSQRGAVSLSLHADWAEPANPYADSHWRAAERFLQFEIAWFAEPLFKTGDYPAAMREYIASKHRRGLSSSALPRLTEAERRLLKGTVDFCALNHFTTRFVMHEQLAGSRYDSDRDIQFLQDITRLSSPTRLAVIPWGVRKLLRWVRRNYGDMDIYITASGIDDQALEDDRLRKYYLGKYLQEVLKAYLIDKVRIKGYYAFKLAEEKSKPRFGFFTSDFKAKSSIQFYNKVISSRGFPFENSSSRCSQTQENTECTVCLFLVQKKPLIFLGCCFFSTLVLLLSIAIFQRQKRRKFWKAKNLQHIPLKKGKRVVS
human beta klotho / human FGFR1c receptor complex on cells, sequence (P11362 22-822 limits assumed, chain 2 of 2): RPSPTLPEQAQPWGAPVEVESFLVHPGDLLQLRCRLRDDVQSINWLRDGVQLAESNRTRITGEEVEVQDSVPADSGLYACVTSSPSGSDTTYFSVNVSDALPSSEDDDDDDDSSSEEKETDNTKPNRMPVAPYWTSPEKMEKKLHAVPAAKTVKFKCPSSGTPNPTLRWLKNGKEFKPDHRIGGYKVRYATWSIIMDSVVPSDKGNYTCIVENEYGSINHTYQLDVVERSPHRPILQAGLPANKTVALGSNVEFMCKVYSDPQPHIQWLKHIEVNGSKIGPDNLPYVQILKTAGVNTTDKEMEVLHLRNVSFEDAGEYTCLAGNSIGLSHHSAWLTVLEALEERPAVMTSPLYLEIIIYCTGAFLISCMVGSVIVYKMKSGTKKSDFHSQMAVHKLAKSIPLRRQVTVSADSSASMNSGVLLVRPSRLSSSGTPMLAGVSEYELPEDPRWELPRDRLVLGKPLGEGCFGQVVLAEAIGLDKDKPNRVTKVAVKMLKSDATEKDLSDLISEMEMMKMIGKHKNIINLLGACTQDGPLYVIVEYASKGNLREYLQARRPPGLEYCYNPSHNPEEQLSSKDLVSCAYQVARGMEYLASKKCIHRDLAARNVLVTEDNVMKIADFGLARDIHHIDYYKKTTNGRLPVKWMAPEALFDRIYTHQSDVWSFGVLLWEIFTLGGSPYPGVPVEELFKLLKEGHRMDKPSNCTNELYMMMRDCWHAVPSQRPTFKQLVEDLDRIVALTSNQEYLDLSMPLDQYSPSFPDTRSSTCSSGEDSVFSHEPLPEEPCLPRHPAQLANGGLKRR

| Binder | Mean Fluorescence intensity [1] | EC50 adipocyte [2] | EC50 reporter assay [2] |
| --- | --- | --- | --- |
| B1 | 14.2 MFI | 11.2 nM | 0.6 nM |
| B2 | 9.59 MFI | – | – |
